Data published in the FLAb antibody collection (doi:10.1101/2023.12.08.570889).

Assays:
C5, P01031 = test: Kd (SPR)
ACVR2B, Q13705 = test: Kd (SPR)
Sequence of ACVR2B, Q13705 (Q13705 whole entry, looked up): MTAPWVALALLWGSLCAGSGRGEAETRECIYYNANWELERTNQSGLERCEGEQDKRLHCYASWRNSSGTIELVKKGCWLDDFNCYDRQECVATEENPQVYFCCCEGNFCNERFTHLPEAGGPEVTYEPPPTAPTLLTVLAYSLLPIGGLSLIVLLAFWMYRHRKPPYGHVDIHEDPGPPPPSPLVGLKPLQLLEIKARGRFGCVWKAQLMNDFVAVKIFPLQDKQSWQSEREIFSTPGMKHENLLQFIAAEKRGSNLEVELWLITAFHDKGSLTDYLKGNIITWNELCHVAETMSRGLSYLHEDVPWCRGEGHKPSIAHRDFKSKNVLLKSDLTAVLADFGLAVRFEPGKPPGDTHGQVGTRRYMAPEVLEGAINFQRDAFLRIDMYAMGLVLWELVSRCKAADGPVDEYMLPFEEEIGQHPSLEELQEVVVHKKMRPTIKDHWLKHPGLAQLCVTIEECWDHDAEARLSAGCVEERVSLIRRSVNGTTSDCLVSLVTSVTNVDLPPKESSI

Binder	Kd (C5, P01031) [nM]	Kd (ACVR2B, Q13705) [nM]
unnamed (protein) chain 1: QVQLVQSGAEVKKPGASVKVSCKASGYIFSNYWIQWVRQAPGQGLEWMGEILPGSGSTEYTENFKDRVTMTRDTSTSTVYMELSSLRSEDTAVYYCARLRWGDTPIIYFDYWGQGTLVTVSS chain 2: DIQMTQSPSSLSASVGDRVTITCGASENIYGALNWYQQKPGKAPKLLIYGATNLADGVPSRFSGSGSGTDFTLTISSLQPEDFATYYCQNVLNTPLTFGQGTKVEIK	749	–
unnamed (protein) chain 1: QVQLVQSGAEVKKPGASVKVSCKASGYIFSNYWIQWVRQAPGQGLEWMGEILPGSGSTEYTENFKDRVTMTRDTSTSTVYMELSSLRSEDTAVYYCARYRYGDTPYIYFDYWGQGTLVTVSS chain 2: DIQMTQSPSSLSASVGDRVTITCGASENIYGALNWYQQKPGKAPKLLIYGATNLADGVPSRFSGSGSGTDFTLTISSLQPEDFATYYCQNVLNTPLTFGQGTKVEIK	583	–
unnamed (protein) chain 1: QVQLVQSGAEVKKPGASVKVSCKASGYIFSNYWIQWVRQAPGQGLEWMGEILPGSGSTEYTENFKDRVTMTRDTSTSTVYMELSSLRSEDTAVYYCARYRYGDTPTIYFDYWGQGTLVTVSS chain 2: DIQMTQSPSSLSASVGDRVTITCGASENIYGALNWYQQKPGKAPKLLIYGATNLADGVPSRFSGSGSGTDFTLTISSLQPEDFATYYCQNVLNTPLTFGQGTKVEIK	689	–
unnamed (protein) chain 1: QVQLVQSGAEVKKPGASVKVSCKASGYIFSNYWIQWVRQAPGQGLEWMGEILPGSGSTEYTENFKDRVTMTRDTSTSTVYMELSSLRSEDTAVYYCARLRYGDTPFIYFDYWGQGTLVTVSS chain 2: DIQMTQSPSSLSASVGDRVTITCGASENIYGALNWYQQKPGKAPKLLIYGATNLADGVPSRFSGSGSGTDFTLTISSLQPEDFATYYCQNVLNTPLTFGQGTKVEIK	937	–
unnamed (protein) chain 1: QVQLVQSGAEVKKPGASVKVSCKASGYIFSNYWIQWVRQAPGQGLEWMGEILPGSGSTEYTENFKDRVTMTRDTSTSTVYMELSSLRSEDTAVYYCARDRSYGDSSWALDAWGQGTLVTVSS chain 2: DIQMTQSPSSLSASVGDRVTITCGASENIYGALNWYQQKPGKAPKLLIYGATNLADGVPSRFSGSGSGTDFTLTISSLQPEDFATYYCQNVLNTPLTFGQGTKVEIK	3980	–
unnamed (protein) chain 1: QVQLVQSGAEVKKPGASVKVSCKASGYIFSNYWIQWVRQAPGQGLEWMGEILPGSGSTEYTENFKDRVTMTRDTSTSTVYMELSSLRSEDTAVYYCARYRWGDTPYIYFDYWGQGTLVTVSS chain 2: DIQMTQSPSSLSASVGDRVTITCGASENIYGALNWYQQKPGKAPKLLIYGATNLADGVPSRFSGSGSGTDFTLTISSLQPEDFATYYCQNVLNTPLTFGQGTKVEIK	850	–
unnamed (protein) chain 1: QVQLVQSGAEVKKPGASVKVSCKASGYTFTSSYINWVRQAPGQGLEWMGTINPVTGNTSYAQKFQGRVTMTRDTSISTAYMELSRLRSDDTAVYYCARGGYFDYWGQGTLVTVSS chain 2: QSALTQPASVSGSPGQSITISCTGTSSDVGSYNYVNWYQQHPGKAPKLMIYGVSKRPSGVSNRFSGSKSGNTASLTISGLQAEDEADYYCGTFAGGSYYGVFGGGTKLTVL	–	10.3
unnamed (protein) chain 1: QVQLVQSGAEVKKPGASVKVSCKASGYTFTSSGINWVRQAPGQGLEWMGTINPVTGNTSYAQKFQGRVTMTRDTSISTAYMELSRLRSDDTAVYYCARGNYMDYWGQGTLVTVSS chain 2: QSALTQPASVSGSPGQSITISCTGTSSDVGSYNYVNWYQQHPGKAPKLMIYGVSKRPSGVSNRFSGSKSGNTASLTISGLQAEDEADYYCGTFAGGSYYGVFGGGTKLTVL	–	0.581
unnamed (protein) chain 1: QVQLVQSGAEVKKPGASVKVSCKASGYTFTSTYINWVRQAPGQGLEWMGTINPVTGNTSYAQKFQGRVTMTRDTSISTAYMELSRLRSDDTAVYYCARGGYFDYWGQGTLVTVSS chain 2: QSALTQPASVSGSPGQSITISCTGTSSDVGSYNYVNWYQQHPGKAPKLMIYGVSKRPSGVSNRFSGSKSGNTASLTISGLQAEDEADYYCGTFAGGSYYGVFGGGTKLTVL	–	7.87

More lines, in order of falling Kd (C5, P01031), values ahead:

Kd (C5, P01031) [nM]	Kd (ACVR2B, Q13705) [nM]	Binder
502	–	unnamed (protein) chain 1: QVQLVQSGAEVKKPGASVKVSCKASGYIFSNYWIQWVRQAPGQGLEWMGEILPGSGSTEYTENFKDRVTMTRDTSTSTVYMELSSLRSEDTAVYYCARYRWGDTPIIYFDYWGQGTLVTVSS chain 2: DIQMTQSPSSLSASVGDRVTITCGASENIYGALNWYQQKPGKAPKLLIYGATNLADGVPSRFSGSGSGTDFTLTISSLQPEDFATYYCQNVLNTPLTFGQGTKVEIK
492	–	unnamed (protein) chain 1: QVQLVQSGAEVKKPGASVKVSCKASGYIFSNYWIQWVRQAPGQGLEWMGEILPGSGSTEYTENFKDRVTMTRDTSTSTVYMELSSLRSEDTAVYYCARLYYGDTPYIYFDYWGQGTLVTVSS chain 2: DIQMTQSPSSLSASVGDRVTITCGASENIYGALNWYQQKPGKAPKLLIYGATNLADGVPSRFSGSGSGTDFTLTISSLQPEDFATYYCQNVLNTPLTFGQGTKVEIK
469	–	unnamed (protein) chain 1: QVQLVQSGAEVKKPGASVKVSCKASGYIFSNYWIQWVRQAPGQGLEWMGEILPGSGSTEYTENFKDRVTMTRDTSTSTVYMELSSLRSEDTAVYYCARLRYGDTPTIYFDYWGQGTLVTVSS chain 2: DIQMTQSPSSLSASVGDRVTITCGASENIYGALNWYQQKPGKAPKLLIYGATNLADGVPSRFSGSGSGTDFTLTISSLQPEDFATYYCQNVLNTPLTFGQGTKVEIK
385	–	unnamed (protein) chain 1: QVQLVQSGAEVKKPGASVKVSCKASGYIFSNYWIQWVRQAPGQGLEWMGEILPGSGSTEYTENFKDRVTMTRDTSTSTVYMELSSLRSEDTAVYYCARYRYGDTPFIYFDYWGQGTLVTVSS chain 2: DIQMTQSPSSLSASVGDRVTITCGASENIYGALNWYQQKPGKAPKLLIYGATNLADGVPSRFSGSGSGTDFTLTISSLQPEDFATYYCQNVLNTPLTFGQGTKVEIK
325	–	unnamed (protein) chain 1: QVQLVQSGAEVKKPGASVKVSCKASGYIFSNYWIQWVRQAPGQGLEWMGEILPGSGSTEYTENFKDRVTMTRDTSTSTVYMELSSLRSEDTAVYYCARDRFDVASGSSFDFWGQGTLVTVSS chain 2: DIQMTQSPSSLSASVGDRVTITCGASENIYGALNWYQQKPGKAPKLLIYGATNLADGVPSRFSGSGSGTDFTLTISSLQPEDFATYYCQNVLNTPLTFGQGTKVEIK
280	–	unnamed (protein) chain 1: QVQLVQSGAEVKKPGASVKVSCKASGYIFSNYWIQWVRQAPGQGLEWMGEILPGSGSTEYTENFKDRVTMTRDTSTSTVYMELSSLRSEDTAVYYCARFRYGDTPIIYFDYWGQGTLVTVSS chain 2: DIQMTQSPSSLSASVGDRVTITCGASENIYGALNWYQQKPGKAPKLLIYGATNLADGVPSRFSGSGSGTDFTLTISSLQPEDFATYYCQNVLNTPLTFGQGTKVEIK
204	–	unnamed (protein) chain 1: QVQLVQSGAEVKKPGASVKVSCKASGYIFSNYWIQWVRQAPGQGLEWMGEILPGSGSTEYTENFKDRVTMTRDTSTSTVYMELSSLRSEDTAVYYCARYYWGDTPYIYFDYWGQGTLVTVSS chain 2: DIQMTQSPSSLSASVGDRVTITCGASENIYGALNWYQQKPGKAPKLLIYGATNLADGVPSRFSGSGSGTDFTLTISSLQPEDFATYYCQNVLNTPLTFGQGTKVEIK
162	–	unnamed (protein) chain 1: QVQLVQSGAEVKKPGASVKVSCKASGYIFSNYWIQWVRQAPGQGLEWMGEILPGSGSTEYTENFKDRVTMTRDTSTSTVYMELSSLRSEDTAVYYCARYYWGDTPIIYFDYWGQGTLVTVSS chain 2: DIQMTQSPSSLSASVGDRVTITCGASENIYGALNWYQQKPGKAPKLLIYGATNLADGVPSRFSGSGSGTDFTLTISSLQPEDFATYYCQNVLNTPLTFGQGTKVEIK
111	–	unnamed (protein) chain 1: QVQLVQSGAEVKKPGASVKVSCKASGYIFSNYWIQWVRQAPGQGLEWMGEILPGSGSTEYTENFKDRVTMTRDTSTSTVYMELSSLRSEDTAVYYCARYYYGDTPTIYFDYWGQGTLVTVSS chain 2: DIQMTQSPSSLSASVGDRVTITCGASENIYGALNWYQQKPGKAPKLLIYGATNLADGVPSRFSGSGSGTDFTLTISSLQPEDFATYYCQNVLNTPLTFGQGTKVEIK
96.3	–	unnamed (protein) chain 1: QVQLVQSGAEVKKPGASVKVSCKASGYIFSNYWIQWVRQAPGQGLEWMGEILPGSGSTEYTENFKDRVTMTRDTSTSTVYMELSSLRSEDTAVYYCARYYYGDTPFIYFDYWGQGTLVTVSS chain 2: DIQMTQSPSSLSASVGDRVTITCGASENIYGALNWYQQKPGKAPKLLIYGATNLADGVPSRFSGSGSGTDFTLTISSLQPEDFATYYCQNVLNTPLTFGQGTKVEIK
